Source: the DeepSol protein solubility set

Experiment: soluble on expression in E. coli; label from the status in PepcDB or PDB records

Sequence	soluble on expression in E. coli
MGSDKIHHHHHHMINVLILGAASQISRFLIPDLLADKTVYLTLFARQAPQRLGQYAGESRVTLVDGDWNQEADIEQVMSNQDIVFLASSSLVGNQNVVTVMKHTGVQRLIVAGGLGIDDEVAGKFGNWNTRMMGDYTPYKQAAKVILDSGLNTTYLRMTWLYDENGNEKYQIVPEGQPLRGTQVTRQAVAKLVTAIVRQPSLYQYANIGVVEPGTEWDKPSFY	not soluble
MGSDKIHHHHHHMIPEKKSIAIMKELSIGNTKQMLMINGVDVKNPLLLFLHGGPGTPQIGYVRHYQKELEQYFTVVHWDQRGSGLSYSKRISHHSMTINHFIKDTIQVTQWLLAHFSKSKLYLAGHSWGSILALHVLQQRPDLFYTYYGISQVVNPQDEESTAYQHIREISESKKASILSFLTRFIGAPPWKQDIQHLIYRFCVELTRGGFTHRHRQSLAVLFQMLTGNEYGVRNMHSFLNGLRFSKKHLTDELYRFNAFTSVPSIKVPCVFISGKHDLIVPAEISKQYYQELEAPEKRWFQFENSAHTPHIEEPSLFANTLSRHARNHL	not soluble
MGSDKIHHHHHHMIQTPVIVTFANQKGGVGKTTLCVTFANYLVAKGVRVLVIDCDFQHSIMKCRKADIKKYGEEQLPYEVWSYEPNNKVEMTSLVEKLHNDPEIDVVLIDSPGSLKAEGLVPIFVNSDIIVVPFHYDLVTIPSTASFLLFLDRLRQAVGERMKAQLFIIPNLNDNRVGKRSELILWDNTRETFSNYGYVTGKIPRRADMERFSTIAALDMQYRYVSSVFDKIYFSIFDKTGPIREMELSGIQLTENLYPKSGKKKYQAETSTHIALDEAEDEEQENNSEHQHNQ	not soluble
MGSDKIHHHHHHMIRFRNFWLPIWNRKMSMKNLYENDLLYRTTGPALRPGGFELTDWAVEHCRFQAGDRILDVGCGRGATVNRLRSHYHLEAYGIDPSATLLTLGQETYPDLPLSKGRGEDIPFTNSCFDGVFVECSLSLMTDPDQALSEIRRVLKVKGKLIIHDVYARNPQGTPDLRELNIGTCIRNALVKEDLEHGLESKGLRTIHWQDHSPLLNRLMMELIMTHGSMSAFWLKSTDCSADPNRVQAALKKAKVGYFQLIAEKEAEKEAEHCPVR	not soluble
MGSDKIHHHHHHMIRINVVGFKGGSGKSTISYHLARQLSEYYNVVLVDKTYSGTISRIYNINNNIFSFLKGRNELFYINKNNLSVINMSFLNEDDLNGIDFNAFKYLYSKLTKDSDIVIVDHSSIPHDFATEIELKAFMENFRNFAYNTVLVLSGDEIPIKKYLNYTVLLNDFVKNYAEKILGISLPTDVKFLKIVAVIINKILKGQESKLEEFIRGDEILQRSARFIIPYYLSLTQRHFKDIDPPKEISDITRYILDFLREPTSIL	not soluble
MGSDKIHHHHHHMISFFLSDLIKSILNIQDNNISFSEEECCQVTQKGDYLLKVFKGFLKSDYCTCPHCSSKNIVKNGSRHRKIKYIPIQNYNIELELTVQRYICKDCKKNFSPSTNIVSDNSSISNNLKYAIALELQKNISLTSIAKRYNISIPSVQRIMDNCYSDFKVNKKHLPEAICIDEFKSVKNIDGAMSFVFADYQSKSIIDIVEDRRLHSLTEYFSRFSLEARNNVKYICMDMYTSYISLVNSIFPNAKIVLDKFHIVNLVNRAFNQTRISIMNSIQDDSLKRKFKLFWKSLLKYYPDLCQINYYCQSFKRKLSSKLSLRKKP	not soluble
MGSDKIHHHHHHMISNLYFVKLKNIGEHEFIKRYIKNYMDIKLLDDVFINEKRGYKVDGFKLSYAFPFMSLYDIGWKAISASTSDIIAKGVKPEFYLISLGLPPDFDVNKAEELIGGISDAIHYYGGRYVGGDLNDSDSNGWVDVFVEGEVLCDISDKVIDDGDLLVIGDYIGYTTNVFISYINNFNIQILPESLLKVKHPIVKKSLLFFMKKYCKFIKYSTDISDGLMVSLYKIVDNFNLGINITEIPIDKNVFNSLKLRLNLTELDILKYAGEEFLPLLIIDKNSPVKEMLAELQYLAFNPLIIGQVIHENRLITYKNTVIKNTGWDNFIGWY	not soluble
MGSDKIHHHHHHMISQNRLRVLARELGVRQGYAEKNYVNSWILWGIFTSDFGENLMFKGGTALSKLYFPQSWRFSEDLDFGVEGQYNGSEDDLRDVLDTVTERSGIEFTISEHHESRQQHYPTHYVDMSIQYRAVLDHPNTTSLDVMVDEYVAFDSVHHTHSYEDIPEFELQAYSVEEIFAEKLRAIFQRGAARDYYDLYQLLETESVEIEFDVVLPAFEAKCDHDDLDVDLTTGLPGDQREDIQRQWETSLPDLTGDPPLFDTVWKRLDEAVIDKGTE	not soluble
MGSDKIHHHHHHMISYGELIRQIRQSKKISQKEVYTGVISKSYAIEFEKGTHAISSLLLEKIVAKLMVSMEEFFLMYHQEALPEKEDFWEAYARTCKTDEASAWESLYQKISLEKGKVNQVKSAAIKLELDHIKGKQVADKKAVQILENYLIEAVFWTLQDIFLFTRMMHYLPLKSRVPFYYKLLNTLDRYRHFERGRSISQSALASIMDDFIEKNEIEYMELMIKSLEKISEDCDGTYSKILCMYYRGIVRWREGEKREGSEEIEQAVAILRALGYENKAAEYETMYRQFARENNDIKTME	not soluble
MGSDKIHHHHHHMIVEKVLIVDPIDGEFTGDVEIEEGKIVKVEKRECIPRGVLMPGFVDPHIHGVVGADTMNCDFSEMEEFLYSQGVTTFLATTVSTSLEKMKEILRKARDYILENPSTSLLGVHLEGPYISKEKKGAHSEKHIRPPSERELSEIDSPAKMLTFAPEIESSELLLRLVKRDIVLSAGHSIATFEEFMKFYKEGVKRITHFPNGLKPLHHREIGITGAGLLLDDVKLELICDGVHLSREMVKLVYKVKKANGIVLVTDSISAAGLKDGTTTLGDLVVKVKDGVPRLEDGTLAGSTLFFSQAVKNFRKFTGCSITELAKVSSYNSCVELGLDDRGRIAEGTRADLVLLDEDLNVVMTIKEGEVVFRSR	soluble
MGSDKIHHHHHHMKAIVFGGSGFIGSHIVNSLEADSVAYYSLEKGTNVKRNDAVWIQGDVTDYSKVEASMAGYDTVFFAVEDWAADEARNREILLNGIKNVVSAIKKASTDQKLVSFSMINQPSYPLEYFRTKRLVEDNTRVLKNGLVVRLSIVFGDGDHFTDRFVKLAEQVSHLPEEGNLAPVYVGDVVTVVNSIIKREGVYDICSNDNLPLIRIINYIRKNIGKKEIGSVKLEKGLSMLTETGLFSRYEAELMFQDYYRETSILDRYVKNPTSYLDFLRSILVEHTT	not soluble
MGSDKIHHHHHHMKALIFDVDDTLYDQIQPFERALERHIEVAREQIEPLYLSFRRYADEVFEATAIGKMSLKDSHIYRMKHALADFGYQVSDATALAIQIDYDYFQGQIELSPVFPEIFSWCQAQGIAMGIITNGPYRHQLRKIRTMGLVNWFELEHVLISGQVGITKPNPAIFQLMEERLGMSGEDICYLGDSFENDVVGAKAANWKAIWFNHRKRVEPTAPYYAYYVVTDWDELVEVIQSF	not soluble
MGSDKIHHHHHHMKAPEGIACGKRQLVVSDTGGGRLLSYSIENGSVRGGTEIKAEQVPYPTKVQLTSKGEILVIDGKLRRIAHFSPEGSFAGYLDLKGVPAPATIAPRGIRVDDKDNIHILDIFGARVIVTDAAGTFQSQMPFPEGYRFISDLAVSASGTTLLLDSVASRVYAAARGETAFKPLTDGMKEYLQFPTSIATDKQGKIFILDQTGNAVVTLGQDGSFQGRQLNIGWKNSFLHYPSQLCISEENDIDVVIADRNNNRIQVFRVVR	not soluble
MGSDKIHHHHHHMKASCYGSVGMAAMVAANLGEALKIFEQFIGSRCDAFKPELKQEQNDVYWSIHQPLKSFQLSSDATIFLLLGFIHIAKHLTGLSALGTVQLNMPEPIGFSKIKDKLGVSFLFDQKHNIWIFPKEYLMQPVLTADPMLAPLLKAQCKKDIDKLKLRSGWKAEISQVIKKLLINSQGEILKVKQVAQMMNMSERSLQRYLAIENTSFSALVDLTRKQYAQELLQNSLMSIESVALSLGYADTSHFTRAFKRWMGVTPKYYQTQLKLKNLEIRE	not soluble
MGSDKIHHHHHHMKAVIFDDFGSPDVLRIADVQRPVATTATVLVKVMAVAVNHVDTFVRSGTFKTALAAPHVAGRDLVGEVVASSQPDFQIGDQVWTNSMGYEGRMGATAEYVAVPTDRLYHVPDGVAPMPLVAAVHSAATAAIVLNDVMEICSGQTLLIEGAAGNVGRKLIQLAHQMGVTVVITASPRDFARCQQLGSTACYDYHAGFADQLTTDQWTFDHVIDTSGRVPLAINLALLRLGGQVTLITAPQDNQFEFPVRQFYMSQQRITGFVISHATVDQLAQAASRLNRAFSAGLLLDDQVSQRYFKDAAQCHAQLEAGTDHHQRFVLLPS	not soluble
MGSDKIHHHHHHMKAYYHLPGLFEFYELYKEFLPLYRKHREYFYDWCDIGSIYGAPADCIWGGGRVGFGEHDLKEVLKLMQEYGISARLTFSNSLLTKEHLPDKKCNELCRIFDIGRDNERSRGFGNGIIIYSDILLDYIKENYPDFYFVSSTTKVLTDFSEFKNELNREEFRYVVPDFRLNKSFDNLKALSQHQKEKVEFLCNECCWFGCTDRKKCYETVSRKNLGVDCPEHYCVAPDSGQGYLFSKAMENPGFIGVYDIKNTYLPMGFSNFKIEGRGLGSAMILEFLLYYMTKPQYQIHVREHIYLDNMLDLF	not soluble
MGSDKIHHHHHHMKCPTETLPMMRCNQILDAAERLIESQGIVSFKFSQLAKEVGCSTGTLYKFFERKEDVLVCLFLRSATSNHLPIFIDKHPELSELEKVLLPVLFTFETISRSKSFFTLRSVSVNTMVWQLASDEKVERFKKRINAFWGWFTDSLHAAVEQGELQATPLQIKELVQGLTFYLTGSLTQFESQLIAPEYLSNRRETCYRHLAKLMGQYKWNQALTPELFDSLEARTKAFFDQHYRDHMTCAACSALSGVNLKDRPACVRQAYQ	not soluble
